According to the nanobody polyreactivity screen of Harvey et al. (2022):

Assay: yeast display, Sf9 membrane polyspecificity reagent, FACS + sequencing; frameworks hold sequencing errors
Procedure, shortened: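 Galactose induction of a Saccharomyces cerevisiae BJ5465 synthetic nanobody display library ran 36–48 hours. The cells were then stained for 1 hour at 4 °C with 10% biotinylated, detergent-solubilized Sf9 membrane reagent, pulled down on streptavidin microbeads and FACS-sorted into low and high (top ~1%) gates on expression and reagent-binding fluorescence. Labels for polyreactivity follow the gate of origin.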
With “QVQLVESGGGLVQAGGSLRLSCAASGRTFSYYAMGWYRQAPGKERELVATIRFSAGGTYYADSVKGRFTISRDNAKNTVYLQMNSLKPEDTAVYYCNADSIDPFLYDYWGQGTQVTVSS” the “polyreactivity (PSR sort gate)” value was “low polyreactivity”. In the case of “QVQLVESGGGLVQAGGSLRLSCAASGRTFSYYAMGWYRQATGKERELVAAINSSGGRTYYADSVKGRFTISRDNAKNTVYLQMNSLKPEDTAVYYCAARSYSTSSHHGYWGQGTQVTVSS”, the “polyreactivity (PSR sort gate)” value is reported as “high polyreactivity”. With “QVQLVESGGGLVQAGGSLRLSCAASGRTFSYYGMGWYRKAPGKERELVAGISIRGSHTYYADSVKGRFTISRDNAKNTVFLQMNSLKPEDTGVYYCAARWIGLYSYEYWGQGSQVTVSS” the “polyreactivity (PSR sort gate)” value was “high polyreactivity”. With “QVQLVESGGGLVQAGGSLRLSCAASGRTFTANAMGWYRQAPGKERELVAAIRWRGGSTSYADSVKGRFTISRDNAKNTVYLQMNSLKPEDTAVYYCAAESRWRSSAGGYYYWGQGTQVTVSS” the “polyreactivity (PSR sort gate)” value was “low polyreactivity”. With “QVQLVESGGGLVQAGGSLRLSCAASGRTFTAYAMGWYRQAPGKERELVAAITSGGSTYYADSVKGRFTISRDNAKNTVYLQMNSLKPEDTAVYYCATDLYSFYWPEYEYWGQGTQVTVSS” the “polyreactivity (PSR sort gate)” value was “low polyreactivity”. In the case of “QVQLVESGGGLVQAGGSLRLSCAASGRTFTDNAMGWYRQAPGKERELVAAISRRGGSTYYADSVKGRFTISRDNAKNTVYLQMNSLKPEDTAVYYCARASRDIRPYDYWGQGTQVTVSS”, the “polyreactivity (PSR sort gate)” value is reported as “high polyreactivity”. With “QVQLVESGGGLVQAGGSLRLSCAASGRTFTEYAMGWYRQAHGKERELVARISIGDSTYYADSVKGRFTISRDNAKNTVYLQMNSLKPEDTAVYYCNAEYSRSYRYDEGYWGQGTKVTVSS” the “polyreactivity (PSR sort gate)” value was “low polyreactivity”. In the case of “QVQLVESGGGLVQAGGSLRLSCAASGRTFTGNAMGWYRPAPGKERELVADNNLSGGDTYYADSVKGRFTISRDNAKNTVYLQMNSLKPEDTAVYYCNARVRDKRTGRYGYWGQGTQVTVSS”, the “polyreactivity (PSR sort gate)” value is reported as “high polyreactivity”. In the case of “QVQLVESGGGLVQAGGSLRLSCAASGRTFTGYNMGWYRQEPGKEREFVAAISSNGGRTYYADSVKGRFTISRDNAKNTVYLQMNSLKPEDTAVYYCAAPFTFWGQGTQVTVSS”, the “polyreactivity (PSR sort gate)” value is reported as “high polyreactivity”. With “QVQLVESGGGLVQAGGSLRLSCAASGRTFTGYVMGWYRQAPGKERELVAVIRYRGGGSYYADSVKGRFTISRDNAKNTVYLQMNSLKPEDTAVYYCARKRVYFGLWMYYWGHGTQVTVSS” the “polyreactivity (PSR sort gate)” value was “high polyreactivity”. In the case of “QVQLVESGGGLVQAGGSLRLSCAASGRTFTIYARGWYRHAPGKERELVAAISSGSRTYYADSVKGRFTISRDNAKNTVYLQMNSLKPEDTAVYYCAASLTRHGYYRLFDYWGQGTQVTVSS”, the “polyreactivity (PSR sort gate)” value is reported as “high polyreactivity”. With “QVQLVESGGGLVQAGGSLRLSCAASGRTFTPYAMGWYRQAPGKERELVATISGGGSTHYADSVKGRFTISRDNAKNTVYIQRNSLKPEDTAVYYCSPSRDTVGRGPIQRDYWGQGTQVTVSS” the “polyreactivity (PSR sort gate)” value was “low polyreactivity”. With “QVQLVESGGGLVQAGGSLRLSCAASGRTFTPYAMGWYRQAPGKERELVATISSGTSTNYADSVKGRFTISRDNAKNTVYLQMNSLKPEDTAVYYCAADGYTYKFDYWGQGTQVTVSS” the “polyreactivity (PSR sort gate)” value was “low polyreactivity”. For “QVQLVESGGGLVQAGGSLRLSCAASGRTFTQNAMGWYRQATGKERELVASISSSGSTYADSVKGRFTISRDNAKNTVYLQMISLKPEDTAVNYCNAVGFQANDYNYWGQGTQVTVSS”, the “polyreactivity (PSR sort gate)” value was “low polyreactivity”. With “QVQLVESGGGLVQAGGSLRLSCAASGRTFTRIAMGWYRPAPGKERELVAAIRWRGGGSTYYADSVKGRFTISRDNAKNTVYLQMNSLKPEDTAVYYCNARRYTGTGSAWYYYWGQGTQVTVSS” the “polyreactivity (PSR sort gate)” value was “high polyreactivity”. With “QVQLVESGGGLVQAGGSLRLSCAASGRTFTRYAMGWYRQAPGKERELVAAISVRAGITYYADSVKGRFTISRDNAKNTVYLQMNSLKPEDTAVYYCAAKDGRSYYDRTPMVYFGQGTQVTVSS” the “polyreactivity (PSR sort gate)” value was “low polyreactivity”. In the case of “QVQLVESGGGLVQAGGSLRLSCAASGRTFTRYAMGWYRQAPGKERELVAAITIGDTTNYADSVKGRFTISRDNAKNTVYLQMNSLKPEDTAVYYCAAYVPRWSSYRRGGYWGQGTQVTVSS”, the “polyreactivity (PSR sort gate)” value is reported as “high polyreactivity”. In the case of “QVQLVESGGGLVQAGGSLRLSCAASGRTFTRYPMGWYRQAPGKERELVAAITRGGSTYADSVKGRFTISRDNAKNTVYLQMNSLKPEDTAVYYCAAYWGFYPWRAYPYDYWGQGTQVTVSS”, the “polyreactivity (PSR sort gate)” value is reported as “high polyreactivity”. With “QVQLVESGGGLVQAGGSLRLSCAASGRTFTRYSMGWYRQAPGKERELVAAISRSGGSTYYADSVKGRFTISRDNAKNTVYLQMNSLKPEDTAVYYCAADVYRDLAYDYWGQGTQVTVSS” the “polyreactivity (PSR sort gate)” value was “high polyreactivity”. In the case of “QVQLVESGGGLVQAGGSLRLSCAASGRTFTRYTMGWYRQAAGKERELVAAISYSGGSTYYADSVKGRFTISRDNAKNTVYLQMNSLKPEDTAVYYCAAASVRWPGYDYWGQGTQVTVSS”, the “polyreactivity (PSR sort gate)” value is reported as “high polyreactivity”. With “QVQLVESGGGLVQAGGSLRLSCAASGRTFTSYAMGWYRQAPGKERELVAAISQGGGRTYYADSVKGRFTISRDNAKNTVYLQMNSLKPEDTAVYYCNARSLYPWRWKKEYGHWGQGTQVTVSS” the “polyreactivity (PSR sort gate)” value was “high polyreactivity”. For “QVQLVESGGGLVQAGGSLRLSCAASGRTFTSYAMGWYRQAPGKERELVATISWSGGSTYYADSVKGRFTISRDNAKNTVYLQMNSLKPEDTAVYYCAALKPWTTGYGDRFDYWGQGTQVTVSS”, the “polyreactivity (PSR sort gate)” value was “low polyreactivity”. For “QVQLVESGGGLVQAGGSLRLSCAASGRTFTTNAMGWYRQAPGKERELVAAITSTTRTYYADSVKGRFTISRDNAKNTVYLQMNSLKPEDTAVYFCAARYPTPWGYYYWGQGTQVTVSS”, the “polyreactivity (PSR sort gate)” value was “high polyreactivity”. For “QVQLVESGGGLVQAGGSLRLSCAASGRTFTTNTMGWYRQAPGKERELVAGIRWSGSRTYYADSVKGRFTISRDNAKITVFLQMNSLKPEDSAVYYCAVGRRSDAPLYVYRFDYWGQGTQVTVSS”, the “polyreactivity (PSR sort gate)” value was “low polyreactivity”. In the case of “QVQLVESGGGLVQAGGSLRLSCAASGRTFTTYAMGWYRQAPGKARELVAAISDTGGITYYADSVKGRFTISRDNAKNTVYLQMISLKPEDTAVYYCNAESYGGDYDYWGQGTQVTVSS”, the “polyreactivity (PSR sort gate)” value is reported as “low polyreactivity”. In the case of “QVQLVESGGGLVQAGGSLRLSCAASGRTFTVNAIGWYRQAPGKERELVAAISGRSGRTSYADSVKGRFTISRDNAKNTVYLQMNSLKPEDTAVYYCNASGGYSTGSRYDYWGQGTQVTVSS”, the “polyreactivity (PSR sort gate)” value is reported as “high polyreactivity”. In the case of “QVQLVESGGGLVQAGGSLRLSCAASGRTFTVYAMGWYRQAPGKERELVAAINYSGGRTYYADSVKGRFTISRDNAKNTVYLQMNSLKPEDTAVYYCAAYVYQSSPRYSRYGGYDYWGQGTQVTVSS”, the “polyreactivity (PSR sort gate)” value is reported as “low polyreactivity”. With “QVQLVESGGGLVQAGGSLRLSCAASGRTFTWNVMGWYRQAPGKERELVAAITTDDRTYADSVKGRFTISRDNAKNTVYLQMNSLKPEDTAVYYCATVVAWSSRPVGEDYWGQGTQVTVSS” the “polyreactivity (PSR sort gate)” value was “low polyreactivity”. For “QVQLVESGGGLVQAGGSLRLSCAASGRTFTYNVMGWYRQAPGKERELVAAISSGGGTISADSVKGRFTISRDNAKHTVYLQMNSLKPEDTAVYYCAAKYAWRLLEMYYWGQGTQVTVSS”, the “polyreactivity (PSR sort gate)” value was “low polyreactivity”. With “QVQLVESGGGLVQAGGSLRLSCAASGRTFTYYAMGWYIQAPGKERELVAAITSGGRTYYADSVKGRFTISRDNAKNHVYLQMNSLKPEDTAVYYCAARRIRDYYRSYDYWGQGTQVTVSS” the “polyreactivity (PSR sort gate)” value was “high polyreactivity”. For “QVQLVESGGGLVQAGGSLRLSCAASGRTFTYYAMGWYRQAPGKERELVAAIRWTGDSTYYADSVKGRFTISRDNAKNTVYLQMNSLKPEDTAVYYCAKQARWQYDGGIRWYYYWGQGTQVTVSS”, the “polyreactivity (PSR sort gate)” value was “high polyreactivity”. For “QVQLVESGGGLVQAGGSLRLSCAASGRTFTYYAMGWYRQAPGKVRELVAAITFRGGRTYYADSVKGRFTFSRDNPKNTVYLQMNSLKPEDTAVYYCAAVPLWSYGGNYWGQGTQVTVSS”, the “polyreactivity (PSR sort gate)” value was “high polyreactivity”. In the case of “QVQLVESGGGLVQAGGSLRLSCAASGRTFVANRMGWYRQAPGKERELVAAINDGDDTYYADSVKGRFTISRDNAKNTVYLQMNSLKPEDTAVYYCAADIIYGYEVYTYTSDYWGQGTQVTVSS”, the “polyreactivity (PSR sort gate)” value is reported as “low polyreactivity”. With “QVQLVESGGGLVQAGGSLRLSCAASGRTFVEYAMGWYRQAPGKERELVADITISGGRTYYADSVKGRFTISRDNAKNTVYLQMNSLKPEDTAVYYCNAQSYLGVTHRGYIKNGYDYWGQGTQVTVSS” the “polyreactivity (PSR sort gate)” value was “low polyreactivity”. With “QVQLVESGGGLVQAGGSLRLSCAASGRTFVGNALGGYIQAPGKERELVAAISSGGSTYYADSVKGRFTISRDNAKITVYLQMNSLNPEDTAVYYCAGLYRRGAHGDYWGQGTQVTVSS” the “polyreactivity (PSR sort gate)” value was “low polyreactivity”. With “QVQLVESGGGLVQAGGSLRLSCAASGRTFVGNSMGWYRQAPGKERELVADITWSGDITYYADSVKGRFTISRDNAKNTVYLQMNSLKPEDTAVYYCAADYHRRRTDYDYWGQGTQVTVSS” the “polyreactivity (PSR sort gate)” value was “low polyreactivity”. For “QVQLVESGGGLVQAGGSLRLSCAASGRTFVGYAIGWSRPATGKERELVAAISRTGGSTYYADSVKGRFTISRDNAKNTVYLQMNSLKPEDTAVYYCNAVTLSSTYGGHDYWGQGTQVTVSS”, the “polyreactivity (PSR sort gate)” value was “high polyreactivity”. For “QVQLVESGGGLVQAGGSLRLSCAASGRTFVGYAMGWDRQAPGKERELVATITSSGRTNYADSVKGRCTISRDNAKNTVYLQMNSLKPEDTAVYYCNKQRTRWYDYWGQGTQVTVSS”, the “polyreactivity (PSR sort gate)” value was “high polyreactivity”. With “QVQLVESGGGLVQAGGSLRLSCAASGRTFVGYAMGWYRQAPGKEREFVADITYDSGSTYYADSVKGRFTISRDNAKNTVYLQMNSLKPEETAVYYCAAPDYWAYTRSMDYWGQGTQVTVSS” the “polyreactivity (PSR sort gate)” value was “high polyreactivity”. With “QVQLVESGGGLVQAGGSLRLSCAASGRTFVGYVMGWYRQAPGKERDLVAAITSRGGRTYYADSLKGRFTISRDNAKNTVYLQMNSLNPEDTGVYYCYAAHGSRAFFGGYDYWGQGTEVTVSS” the “polyreactivity (PSR sort gate)” value was “high polyreactivity”. In the case of “QVQLVESGGGLVQAGGSLRLSCAASGRTFVHYTMGWYRQTPGKDRELVAAISGTGTSTYYADSVKGRFTISRDNAKNTVYLQMNSLKPEDTAVYYCARDPYFGFHIGYPRRDYWGQGTQVTVSS”, the “polyreactivity (PSR sort gate)” value is reported as “low polyreactivity”. In the case of “QVQLVESGGGLVQAGGSLRLSCAASGRTFVIYAMGWYRQAPGKQRELVAAISKSGGRTYYADSVKGRFTISRDNAKNSVYLQMNSLKPEDTAVYYCNKVLSVSQAGGFDYWGQGTQVTVSS”, the “polyreactivity (PSR sort gate)” value is reported as “high polyreactivity”. In the case of “QVQLVESGGGLVQAGGSLRLSCAASGRTFVKNAMGWYRQAPGKERELVAISWSTGGTYYADSVKGRFTISRDNAKNTVYLQMNSLKPEDTAVYYCNADWGSVNGYSGYYYWGQGTQVTVSS”, the “polyreactivity (PSR sort gate)” value is reported as “low polyreactivity”.
